For 1 molecule, Kd, koff and kon results are on record in paper PMC4065035, “A Highly Functional Synthetic Phage Display Library Containing over 40 Billion Human Antibody Clones” (PLoS ONE, 2014).

The target of assay [1] is T1, human recombinant BCD domains of tenascin-C (Homo sapiens, UniProt P24821).
T1 construct: tenascin-C, human, alternatively spliced segment of the three fibronectin type-III homology domains B, C and D; AVI-Tag followed by the His-Tag at the C-terminus; Purification of the human construct is not clearly told; also called human BCD; human BCD domain; source: E. coli (pUC119 vector)
Description: SPR; Biacore 3000; CM5 chip coated with murine or human recombinant BCD domains of tenascin-C; antibody (monomeric fraction of scFv, or SIP) injected at different concentrations, 10 µL/min; regeneration with 10 mM HCl. Particulars: both partners purified.

For assay [2], the target named is T2, murine recombinant BCD domains of tenascin-C (Mus musculus, UniProt Q80YX1).
T2 construct: tenascin-C, mouse, alternatively spliced segment of the three fibronectin type-III homology domains B, C and D; A biotinylated version was used for the panning; the Biacore chip was a coated CM5 chip; also called murine BCD; murine BCD antigen; source: E. coli (pQE12 vector), purified over NiNTA resin
The assay is described as above. Particulars: both partners purified.

B1: scFv(G5), human antibody G5 in monomeric scFv format (scFv, V domains shown)
VH: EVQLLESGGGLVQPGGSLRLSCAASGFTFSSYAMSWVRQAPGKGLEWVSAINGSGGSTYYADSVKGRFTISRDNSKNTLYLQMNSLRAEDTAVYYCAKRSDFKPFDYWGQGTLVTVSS
VL: SSELTQDPAVSVALGQTVRITCQGDSLRSYYASWYQQKPGQAPVLVIYGKNNRPSGIPDRFSGSSSGNTASLTITGAQAEDEADYYCNSSGFPRTLVVFGGGTKLTVL
notes: VH of G5; library VH is on the DP47 germline with S52N (numbering of Tomlinson et al.) and a randomised CDR3 (residues 95-100); flexible polypeptide linker that connects VH and VL in the library's scFv format; VL of G5; Library scFv are detected by the anti-myc antibody 9E10; also called G5 antibody clone; anti-BCD antibody G5; source: E. coli (pHEN1 phagemid, IPTG induction), purified over …
With B1, in assay [1], the Kd came out at 27 nM, the koff was 0.003 s⁻¹ and the kon amounted to 110000 M⁻¹ s⁻¹. Further, in assay [2], the Kd was 31 nM, the koff is 0.0025 s⁻¹ and the kon was determined as 79000 M⁻¹ s⁻¹.

Broadly, the Kd is the constant that tells how readily two partners part at equilibrium. Usually koff stands for the first-order rate constant of dissociation. For orientation: kon means the rate constant with which the complex forms.
